Measurements from US20220195057A1 (LANOVA MEDICINES, published 2022).

Experiments:
[1] = target: T1, human chemokine (C-C motif) receptor 8 (CCR8) protein (human, UniProt P51685 1-355); assay: flow cytometry, low-CCR8-expressing Jurkat cells
T1 construct: whole, on cells; also called human CCR8
Source text: The cells used were Jurkat engineering cells (Jurkat/H_CCR8).

[2] = target: T1, human chemokine (C-C motif) receptor 8 …; assay: flow cytometry, high-CCR8-expressing U2OS cells
Source text: The cells used were U2OS (U2OS/H_CCR8).

[3] = target: T1, human chemokine (C-C motif) receptor 8 …; assay: cell-based or functional assay
[4] = target: T1, human chemokine (C-C motif) receptor 8 …; assay: flow cytometry, CCR8-expressing HEK293 cells
Method in brief: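 Cell binding was measured by flow cytometry on HEK293 cells overexpressing human CCR8, alongside parental HEK293 cells. Antibodies were titrated from 200 nM in 4-fold dilutions over 12 points and incubated with the cells at 4° C for 60 minutes. Cells were washed twice with FACS buffer, stained with Alexa Fluor 647 goat anti-human IgG at 4° C for 60 minutes, washed twice and analysed. The read-out is binding EC50.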

[5] = target: T1, human chemokine (C-C motif) receptor 8 …; assay: cell binding, CCR8-expressing U2OS cells, curve fit; set-up: LogEC50: unit not given here
[6] = target: T1, human chemokine (C-C motif) receptor 8 …; assay: cell binding, CCR8-expressing CHO-K1 cells, curve fit; set-up: LogEC50: unit not given here

B1: 137-H3L2 (LM-108) (antibody, V domains shown)
VH: EVQLVESGGGLVQPGGSLKLSCAASGFTFNTYAMNWVRQASGKGLEWVARIRSKANNYATYYADSVKDRFTISRDDSKNTLYLQMNNLKTEDTAVYYCVRDRSRGEDYAMDYWGQGTLVTVSS
VL: DIVMTQSPLSLPVTPGEPASISCRSSKSLLHSNANTYLYWFLQKPGQSPQLLIYRMSNLASGVPDRFSGSGSGTAFTLKISRVEAEDVGVYYCMQHLEYPFTFGQGTKLEIK
notes: Humanized 137D1H10; Detected with anti-human IgG
Q: With B1 as the binder, how does the EC50 [1] read?
A: Its EC50 is 0.212 nM.

Q: What about the EC50 [2] of the same binder?
A: Its EC50 is 0.25 nM.

Q: What about the “ADCC EC50 with primary human PBMCs (cytotoxicity detection)” value [3] of the same binder?
A: Its value is 0.002 nM.

Q: What about the EC50 [4] of the same binder?
A: The EC50 was 1.03 nM.

Q: And the Bottom [5]?
A: Its Bottom is 2060.

Q: What about the LogEC50 [5] of the same binder?
A: Its LogEC50 is -0.69.

Q: And the Span [5]?
A: Its Span is 30200.

Q: And the Top [5]?
A: The Top was 32300.

Q: And the Bottom [6]?
A: The Bottom was 4260.

Q: What about the LogEC50 [6] of the same binder?
A: Its LogEC50 is -0.684.

Q: And the Span [6]?
A: The Span was 28900.

Q: And the Top [6]?
A: The Top was 33200.
